Reference: US20070275898

Molecular target: β subunit of DNA polymerase III of Escherichia coli (UniProt P0A988)
Sequence (P0A988 whole entry): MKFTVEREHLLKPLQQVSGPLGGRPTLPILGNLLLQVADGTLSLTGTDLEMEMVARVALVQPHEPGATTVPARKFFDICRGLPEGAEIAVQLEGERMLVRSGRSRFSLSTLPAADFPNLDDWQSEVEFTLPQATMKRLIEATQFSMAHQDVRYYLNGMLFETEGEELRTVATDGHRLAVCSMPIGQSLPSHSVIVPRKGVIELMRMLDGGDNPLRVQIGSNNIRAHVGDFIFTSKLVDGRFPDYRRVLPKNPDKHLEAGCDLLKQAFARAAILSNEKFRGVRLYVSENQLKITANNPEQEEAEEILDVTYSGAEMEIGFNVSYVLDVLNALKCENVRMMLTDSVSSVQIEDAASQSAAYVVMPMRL

“Pol IVD5 mutant of Pol IV lacking the 5 C-terminal amino-acids” was tested, and the “growth rate (OD 600 nm) of E. coli on IPTG-induced expression” value was “a clear growth inhibition was observed for the culture expressing the wild type Pol IV protein compared to the one expressing the mutant protein”.
